The text below walks through data of patent US20120135923A1, “Use of Melanocortins to Treat Dyslipidemia” (IPSEN PHARMA, S.A.S., priority 2009, published 2012).

Bridge positions count the residues as written; N and C are the ends. Square brackets hold non-standard residues; d marks the D form. Ends that are not written are not given here. Bip = N[C@@H](Cc1ccc(-c2ccccc2)cc1)C(=O)O; 2Nal = N[C@@H](Cc1ccc2ccccc2c1)C(=O)O; d2Nal = N[C@H](Cc1ccc2ccccc2c1)C(=O)O; hArg = N=C(N)NCCCC[C@H](N)C(=O)O; Pen = CC(C)(S)[C@H](N)C(=O)O; Nle = CCCC[C@H](N)C(=O)O; GABA = NCCCC(=O)O; βAla = NCCC(=O)O

In assay [1] the target is hMC1-R (human) (UniProt Q01726). Briefly: ratio Ki hMC1-R / Ki hMC4-R, same assay.
The target of the next assay is hMC4-R (human) (UniProt P32245). Briefly: competition with [125I]-NDP-α-MSH, CHO-K1 membranes.
The target in a further assay is hMC3-R (human) (UniProt P41968). Described as above.
The target of the next assay is hMC5-R (human) (UniProt P33032). The assay is described as above.
For assay [2], the target named is hMC1-R (human) (UniProt Q01726). The description is as above.

hMC5-R (human), sequence (P33032 whole entry): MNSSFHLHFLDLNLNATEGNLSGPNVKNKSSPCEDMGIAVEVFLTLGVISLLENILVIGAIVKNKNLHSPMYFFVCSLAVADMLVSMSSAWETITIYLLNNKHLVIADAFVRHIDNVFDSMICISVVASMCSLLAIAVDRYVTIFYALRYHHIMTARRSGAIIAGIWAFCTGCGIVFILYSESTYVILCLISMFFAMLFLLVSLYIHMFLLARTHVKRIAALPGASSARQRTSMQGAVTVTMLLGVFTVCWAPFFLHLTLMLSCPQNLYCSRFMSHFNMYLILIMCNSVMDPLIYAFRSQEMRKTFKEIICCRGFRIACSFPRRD
hMC4-R (human), sequence (P32245 whole entry): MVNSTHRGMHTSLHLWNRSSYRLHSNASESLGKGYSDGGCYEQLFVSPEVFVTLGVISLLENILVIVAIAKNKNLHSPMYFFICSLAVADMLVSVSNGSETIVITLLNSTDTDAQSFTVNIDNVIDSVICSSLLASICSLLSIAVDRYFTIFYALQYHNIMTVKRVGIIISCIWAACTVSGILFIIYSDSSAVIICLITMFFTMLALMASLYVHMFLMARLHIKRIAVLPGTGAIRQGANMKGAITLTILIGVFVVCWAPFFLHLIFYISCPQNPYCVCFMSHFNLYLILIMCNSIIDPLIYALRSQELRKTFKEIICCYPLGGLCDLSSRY
hMC1-R (human), sequence (Q01726 whole entry): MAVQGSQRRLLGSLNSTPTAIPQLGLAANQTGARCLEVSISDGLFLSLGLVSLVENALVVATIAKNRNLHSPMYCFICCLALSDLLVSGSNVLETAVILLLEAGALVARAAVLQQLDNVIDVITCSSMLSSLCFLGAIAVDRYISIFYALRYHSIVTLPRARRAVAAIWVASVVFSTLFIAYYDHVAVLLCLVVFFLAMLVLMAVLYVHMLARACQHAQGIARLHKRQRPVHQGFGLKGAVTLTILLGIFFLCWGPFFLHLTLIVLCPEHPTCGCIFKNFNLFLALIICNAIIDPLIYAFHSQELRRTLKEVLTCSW
hMC3-R (human), sequence (P41968 whole entry): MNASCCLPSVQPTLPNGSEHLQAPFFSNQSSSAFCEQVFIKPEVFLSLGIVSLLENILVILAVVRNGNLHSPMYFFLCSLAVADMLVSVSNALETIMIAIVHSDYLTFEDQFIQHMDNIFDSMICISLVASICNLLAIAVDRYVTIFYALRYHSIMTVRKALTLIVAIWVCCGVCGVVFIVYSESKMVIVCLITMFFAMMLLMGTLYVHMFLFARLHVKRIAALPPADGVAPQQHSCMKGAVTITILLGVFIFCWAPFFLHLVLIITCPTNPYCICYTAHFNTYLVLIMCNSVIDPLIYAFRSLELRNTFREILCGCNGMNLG

As usually defined, the Ki is a dissociation constant, usually derived from enzyme kinetics or from competition with a known ligand. High values mean weaker binding, low ones tighter binding. As for [dF]CH[d(Et)Tyr][hArg][Bip][βAla][dC]T-NH2 (disulfide 2-8) [D-Phe-c(Cys-His-D-(Et)Tyr-hArg-Bip-β-Ala-D-Cys)-Thr-NH2], the Ki hMC1-R/MC4-R with hMC1-R (human) [1] was 0. In addition, the inhibition constant (Ki) amounted to 36.9 nM with hMC4-R (human), 85.6 nM in the assay with hMC3-R (human), 38 nM with hMC5-R (human) and 0.128 nM in the assay with hMC1-R (human) [2].

B1: Ac-Nle-c(Pen-His-D-Phe-Arg-Trp-Gaba-Cys)-NH2 (peptide)
peptide: Ac-[Nle][Pen]H[dF]RW[GABA]C-NH2
modifications: disulfide 2-8
SMILES: CCCC[C@H](NC(C)=O)C(=O)N[C@@H]1C(=O)N[C@@H](Cc2c[nH]cn2)C(=O)N[C@H](Cc2ccccc2)C(=O)N[C@@H](CCCNC(=N)N)C(=O)N[C@@H](Cc2c[nH]c3ccccc23)C(=O)NCCCC(=O)N[C@H](C(N)=O)CSSC1(C)C
Regarding B1, the Ki hMC1-R/MC4-R with hMC1-R (human) [1] was found to be 0.09. For the same molecule, the Ki in the assay with hMC4-R (human) was determined as 5.89 nM; with hMC3-R (human), 86.1 nM; with hMC5-R (human), 2.56 nM; with hMC1-R (human) [2] it was 0.537 nM.

B2: Ac-Nle-c(Cys-D-Ala-His-D-Phe-Arg-Trp-D-Ala-Cys)-NH2 (peptide)
peptide: Ac-[Nle]C[dA]H[dF]RW[dA]C-NH2
modifications: disulfide 2-9
SMILES: CCCC[C@H](NC(C)=O)C(=O)N[C@H]1CSSC[C@@H](C(N)=O)NC(=O)[C@@H](C)NC(=O)[C@H](Cc2c[nH]c3ccccc23)NC(=O)[C@H](CCCNC(=N)N)NC(=O)[C@@H](Cc2ccccc2)NC(=O)[C@H](Cc2c[nH]cn2)NC(=O)[C@@H](C)NC1=O
As for B2, in the assay with hMC1-R (human) [1], the Ki hMC1-R/MC4-R is 0.08. Further, the inhibition constant Ki came out at 48 nM with hMC4-R (human), 876 nM with hMC3-R (human), 4940 nM with hMC5-R (human) and 3.93 nM in the assay with hMC1-R (human) [2].

B3: Ac-Nle-c(Cys-D-Ala-His-D-2-Nal-Arg-2-Nal-Cys)-NH2 (peptide)
peptide: Ac-[Nle]C[dA]H[d2Nal]R[2Nal]C-NH2
modifications: disulfide 2-8
SMILES: CCCC[C@H](NC(C)=O)C(=O)N[C@H]1CSSC[C@@H](C(N)=O)NC(=O)[C@H](Cc2ccc3ccccc3c2)NC(=O)[C@H](CCCNC(=N)N)NC(=O)[C@@H](Cc2ccc3ccccc3c2)NC(=O)[C@H](Cc2c[nH]cn2)NC(=O)[C@@H](C)NC1=O
Turning to B3, in the assay with hMC1-R (human) [1], the Ki hMC1-R/MC4-R was 12.8. For the same molecule, the Ki was 2.53 nM with hMC4-R (human), 5.85 nM in the assay with hMC3-R (human), 94.6 nM with hMC5-R (human) and 32.5 nM with hMC1-R (human) [2].

As to [dF]CH[d(Et)Tyr]RW[βAla][dC]T-NH2 (disulfide 2-8) [D-Phe-c(Cys-His-D-(Et)Tyr-Arg-Trp-β-Ala-D-Cys)-Thr-NH2], in the assay with hMC1-R (human) [1], the Ki hMC1-R/MC4-R was 0. Moreover, the Ki was 1.1 nM with hMC4-R (human), 9.3 nM with hMC3-R (human), 2.9 nM with hMC5-R (human) and 0.05 nM with hMC1-R (human) [2].

B4: D-Phe-c(Cys-His-D-Phe-hArg-Bip-β-Ala-D-Cys)-Thr-NH2 (peptide)
peptide: [dF]CH[dF][hArg][Bip][βAla][dC]T-NH2
modifications: disulfide 2-8; N-terminus assumed
SMILES: C[C@@H](O)[C@H](NC(=O)[C@H]1CSSC[C@H](NC(=O)[C@H](N)Cc2ccccc2)C(=O)N[C@@H](Cc2c[nH]cn2)C(=O)N[C@H](Cc2ccccc2)C(=O)N[C@@H](CCCCNC(=N)N)C(=O)N[C@@H](Cc2ccc(-c3ccccc3)cc2)C(=O)NCCC(=O)N1)C(N)=O
Regarding B4, the Ki hMC1-R/MC4-R in the assay with hMC1-R (human) [1] amounted to 0.01. The Ki with hMC4-R (human) amounted to 172 nM; in the assay with hMC3-R (human), 1260 nM; with hMC5-R (human), 1220 nM; with hMC1-R (human) [2] it was 1.68 nM.

B5: D-Phe-c(Cys-His-D-Phe-Arg-Trp-β-Ala-D-Cys)-Thr-NH2 (peptide)
peptide: [dF]CH[dF]RW[βAla][dC]T-NH2
modifications: disulfide 2-8; N-terminus assumed
SMILES: C[C@@H](O)[C@H](NC(=O)[C@H]1CSSC[C@H](NC(=O)[C@H](N)Cc2ccccc2)C(=O)N[C@@H](Cc2c[nH]cn2)C(=O)N[C@H](Cc2ccccc2)C(=O)N[C@@H](CCCNC(=N)N)C(=O)N[C@@H](Cc2c[nH]c3ccccc23)C(=O)NCCC(=O)N1)C(N)=O
For B5, the Ki hMC1-R/MC4-R in the assay with hMC1-R (human) [1] worked out at 0.08. Besides, the inhibition constant (Ki) with hMC4-R (human) came out at 2.58 nM; with hMC3-R (human), 43.2 nM; in the assay with hMC5-R (human), 344 nM; with hMC1-R (human) [2], 0.207 nM.
